The values below come from patent US20100291070A1.

The test concerns the target PA1698 protein on Pseudomonas aeruginosa PA103 strain cells (Pseudomonas aeruginosa (PA103 strain)). In words: whole cell ELISA on immobilised P. aeruginosa PA103, 50 ug/well.

“negative control IgG fraction purified from control rat sera obtained by administering only adjuvant (antibody)” had an absorbance at 450 nm of 0.084.
